Source: the DeepSol protein solubility set

assay: soluble on expression in E. coli; label from the status in PepcDB or PDB records

Soluble on expression in E. coli, not soluble:
MGSDKIHHHHHHMSVLKATNSIEQRLQIQRLQAPTRVVTSTAGGDVVRGLTQTPKTLPPCYFYDDRGSELFERICELPEYYVTRTETAILQRFAGEIARITGACELVELGSGNSTKTRILLDAYQQLDYPLRYLPIDVCAGILESSAKQLLQDYPSLEVYALAGTYELALAQLTPKKLSSRMICFIGSTLGNLNLQECDVFLSQIRATLNVGEYFLLGVDLQKPKEILEPAYDDSQGVTAEFNLNMLEHLNRSFEGNFDTTQFKHWAFYNESEQRIEMHLKSERSQTVQLKSLNLTVNLAQGETILTEISRKFNLESIQQQLAAKGLIPVQTWTDVNQWFGLLLCQVQG
MGSDKIHHHHHHMVYPVKDIQSVRDLALLAIRNKVSLEQQVETLGFESETYDYSSLLADLKVLPPLDHPDPTHCLISGTGLTHLGSASARDKMHQQNLSNDSSVTDTMRIFQWGLQKGRPAEGQIGAQPEWFYKGDGSIVVRPGAELPLPPFAEDGGEEPEIAGLYVIGEDLKPYRIGFALGNEYSDHVMERRNYLYLAHSKLRFCSFGPALRTGELPKHLVGTSRLRRDGQIIWEKEFLSGEDNMCHSLANLEYHHFKYQQFLKAGDVHIHYFGTATLSFADGIQAQVNDEFEIEMKEFGHPLKNKLAHMQPELPIGSVITL
MKILGISGSPRKEGTHFAVNYALDYLKEKGFETKYISVFQKKIEFCIHCDYCLRTKEGCVHKDSMQEIYNGLKWADAVILGSPCYNGTVSGQLKTIMDRCRAIFAEDIDVLRNKYGMALSVGGDRNGGQEVVLKTIHDFYILNGVIPVSGGSFGSNLGATFWSQDNGKKGVEEDTEGIRTLKRTLKKFYNCLNEEGELEHHHHHH
MGSDKIHHHHHHMNYEDFKEVIHGRRSVRKFTEQEVATSDIKDIIDCARYAPSDTNSQTWEFLVIMNREKIKEIEQMTWDALHKLAAKAAKNGEEKAGKLLTRSFGPYATAFSEAPVLIVCLATPYESKFREKIFDPIAFVPDSVWEEEGIKSSCLAAQNLMLAAHAKGLGTCPMTGPVLLAQDELRQYLQIEPEKQINMVISLGFPKDKPKKLPRKEVDEITTFVF
RGFAKIRDERARRDKIHNLIKRKLDPTKRFSSKQQRQLDRLTRESNLKPSELKETIREEVVEELAGAADGDDVDAVIDEAAGITTTYEPIEFEDTTVSVEDTSLGLPSHARPMSELEDLTTFEEDIAEEAATNTPADKPAAKH
MSGWPRIYYKLLNLPLSILVKSKSIPAEPAQELGLDTSRPIMYVLPYNSKADLLTLRAQCLAHDLPDPLEPLEIDGALLPRYVFIHGGPRVFTYYTPKEESVKLFHDYLDLHRSNPALDVQMVPVSVMFGRAPGREKGEDNPPLRMLNGVQKFFAISWLGRDSFVRFSPSVSLRRMADEHGTDKIIAQKLARVARMHFARQRLAAVGPRLPARQDLFNKLLASKAIARAVEDEARSKKISHEKAQQNAIALMEEIAANFSYEMIRLTDRILGFTWNRLYQGINVHNAERVRQLAHDGHEIVYVPCHRSHMDYLLLSYVLYHQGLVPPHIAAGINLNFWPAGPIFRRLGAFFIRRTFKGNKLYSTVFREYLGELFSRGYSVEYFVEGGRSRTGRLLDPKTGTLSMTIQAMLRGGTRPITLVPIYIGYEHVMEVGTYAKELRGATKEKESLPQMLKGLSKLRNLGQGYVNFGEPMPLMTYLNQHVPEWRESIDPIEAIRPAWLTPTVNSIAADLMVRINNAGAANAMNLCCTALLASRQRSLTREQLTEQLDCYLDLMRNVPYSTDSTVPAASAGELIAHALQMNKFEVEKDTIGDIIILPREQAVLMTYYRNNIAHMLIMPSLMAAIITQHRRISRDALQQHVEALYPMLKAELFLRWEREELASVIDALASEMQRQGLITLQDDELHINPTHSRTLQLLAAGARETLQRYAITFWLLSANPSINRSTLEKESRTVAQRLSVLHGINAPEFFDKAVFSSLVLTLRDEGYISDTGDAEPAETMKIYQMLADLITSDVRLTIESATQGE
QQEYMKVGKFSPESNRSRWLVTRGATMTTKDTTRNMTMNTNLGGYQVLEIFRKLETPEAVTAFEGLSIPEPGLEPRFCVREGEQEVPVTTRYTDEAFWQVFDFSFVAGKHYTEADARSNIAVAVITDRLARRFFGSSSEAVGRQALINGRKYTVCGVVRHVTPFCDFAYGDVWMPVFRLYEERVKNNLFSRFNVICLAKSPKDFDAIKEEVGALTAKCNSVQEKFNISFPGQPADQFTTMHRKFHRDDTEPLEYRRR
MRAIVLLSVLISCYLVIAEDYYELLGVERDADDRTIRKAFKKLAIKKHPDRNTDDPNAHDEFVKINKAYEVLKDENLRKKYDQFGEKGLEDGFQGGNNYQSWQFYNDNFGIYDDDQEIVTLNRADFQRMVSDSNEIWFINFYSTYCSHCHQLAPTWRKFAREIEGTIRVGAVNCAEDPQLCQSQRVNAYPSLVFYPTGEFYQGHRDVELMVDFAIQRLKSEVLHLNSENWKALSEDWEPYNRLPWVVDMCGGDHIDCLSSTTRRKLSSMLDGLANVATIDCNAEEALCSKFNPITSGVMWFPARKLVKKSQINIESMDAQEISKSVIQYLDELEDISVESLQRLLEGNDPDEPIAVWMLANDAQSTERKDFRRLPALVTTQIFKFDCSKSSEICDELLDKTKLPQFMVFKTTGGYEIDYAGSKDFHAASTFIREASKSHIHVLNRDSYEYAISGGEFYIIDYFAPWCPPCMKLLGEYRRFHTATSEDSMLHTVAIGSLDCVKYKDLCQQAGVQSYPTSIVYTPDGKTHKMVGYHNVDYILEFLDNSLNPSVMEMSPEQFEELVMNRKDEETWLVDFFAPWCGPCQQLAPELQKAARQIAAFDENAHVASIDCQKYAQFCTNTQINSYPTVRMYPAKKTKQPRRSPFYDYPNHMWRNSDSIQRWVYNFLPTEVVSLGNDFHTTVLDSSEPWIVDFFAPWCGHCIQFAPIYDQIAKELAGKVNFAKIDCDQWPGVCQGAQVRAYPTIRLYTGKTGWSRQGDQGIGIGTQHKEQFIQIVRQQLKLDEHDEL
MLKILKRIVQDVTAASDLKEALGILVQRINTAINAEAVSVYLIDNKNAEYVLIATEGLNKQAEFRVRIALDCGLIGLIGRREEPINIENAPSHPDFYHNPLIGEDHLNAFLGVPIIQHRKLYGVLVVQQLEQRYFDDAEESFLITLAAQLGGIIAHAEATGELAELTQ
MGSDKIHHHHHHMRKLPPLRALQVFEAAARHLHFSRAAEELCLTQSAVSHQVRGLEQHLGQTLFARRGRELALTPKGEQLFLAVQSALDGLDSLCRQLNEAESRELRLAVYSSFAVKWLIPRLGDFRRQHPGIKIHLEMVSGDPPLSDQVADMFICGEQHQRGFWQTLLRPERLIPVCSPALANALGEALVMPLRLDSLPLLSVDEADIGPDWARWAKSQAQTLTQAQLQSYSHVLLAIEAAIAGQGIALASDFIVEGDIAAGKLMALPWPALETGFGFHFCCRERRLKEPAMAAFAEWIQQQAAMAG
MGSDKIHHHHHHMDKLLFGISGIPNGSGNEKFTYETGIDYLKSIGLDAMELPFVRSVNITNKNREGILNKKHEKDFYLSAHGSYFINLNAEENEKQEASLKRIVSGADALKSVEGKSLIFHPGFYLKDSKEETFNTIKENLKKLPDIGVDYRLETTGKPTQFGSLEENVALASEVKTCKLCIDFCHLHARYNGLFKTIEDFDKVLSYVGEKLGEAALNDMHIHMSGINYGIKGEKNHLPFKESDFPYEKCIKSFVKFNIKGCIICESPLLEKDSLLLKSIYEAS

Soluble on expression in E. coli, soluble:
MSLENDFPLKGKTVLVTRNKAQAASFQQKVEALGGKAVLTSLITFRRALPNDVAEQVREDLAAPGWLVFTSVNGADFFFSYLKENQLILPAHKKIAAVGEKTARRLKMHNVSVDVMPQEYIAEQLADALKQHAEPGETITVMKGNLSRDVIKQELVPLGFEVKEWVLYETIPDEEGIEALKDAAGQYSFDYVTFTSSSTVHTFMHVLGEELKKWKANGTACISIGPLTNDALLTYGITSHTPDTFTIDGMLELMCSMSREEERIEGHHHHHH
GSGSAMIEARQVSELSTRIISSVQMLSNAQNEQERKEAGRVLFEQLESLLTHIKELGGESFDSKLLDALESNVQNVINNLAELGVTVERKLWLAKEIDTRVEEMRLLSEELEQLTRTQVQNTSTIAVANVTHIYDLLEANKKDQVYQALDALVEVDLDLTERLHELHLLAFKMLNQIEEARTLTNVDRIQQIQTAFENNLKIMKRRVLAVEDPTRSKQMSQLLTELGKRQVVFTILLQQYENNEQSQQLMQKTLELFSELNSTVNKLVDDSNKTTT
MPCVQAQYGSSPQGASPASQSYSYHSSGEYSSDFLTPEFVKFSMDLTNTEITATTSLPSFSTFMDNYSTGYDVKPPCLYQMPLSGQQSSIKVEDIQMHNYQQHSHLPPQSEEMMPHSGSVYYKPSSPPTPTTPGFQVQHSPMWDDPGSLHNFHQNYVATTHMIEQRKTPVSRLSLFSFKQSPPGTPVSSCQMRFDGPLHVPMNPEPAGSHHVVDGQTFAVPNPIRKPASMGFPGLQIGHASQLLDTQVPSPPSRGSPSNEGLCAVCGDNAACQHYGVRTCEGCKGFFKRTVQKNAKYVCLANKNCPVDKRRRNRCQYCRFQKCLAVGMVKEVVRTDSLKGRRGRLPSKPKSPQEPSPPSPPVSLISALVRAHVDSNPAMTSLDYSRFQANPDYQMSGDDTQHIQQFYDLLTGSMEIIRGWAEKIPGFADLPKADQDLLFESAFLELFVLRLAYRSNPVEGKLIFCNGVVLHRLQCVRGFGEWIDSIVEFSSNLQNMNIDISAFSCIAALAMVTERHGLKEPKRVEELQNKIVNCLKDHVTFNNGGLNRPNYLSKLLGKLPELRTLCTQGLQRIFYLKLEDLVPPPAIIDKLFLDTLPF
MAEIVLTQSPGTQSLSPGERATLSCRASQSVGNNKLAWYQQRPGQAPRLLIYGASSRPSGVADRFSGSGSGTDFTLTISRLEPEDFAVYYCQQYGQSLSTFGQGTKVEVKLVPR
MPKRIVYNISSDFQLKSLLGEGAYGVVCSATHKPTGEIVAIKKIEPFDKPLFALRTLREIKILKHFKHENIITIFNIQRPDSFENFNEVYIIQELMQTDLHRVISTQMLSDDHIQYFIYQTLRAVKVLHGSNVIHRDLKPSNLLINSNCDLKVCDFGLARIIDESAADNSEPTGQQSGMVEFVATRWYRAPEVMLTSAKYSRAMDVWSCGCILAELFLRRPIFPGRDYRHQLLLIFGIIGTPHSDNDLRCIESPRAREYIKSLPMYPAAPLEKMFPRVNPKGIDLLQRMLVFDPAKRITAKEALEHPYLQTYHDPNDEPEGEPIPPSFFEFDHYKEALTTKDLKKLIWNEIFS
MSLDRILTFDCYGTLIDTKPVFDAISNIAKNNILNSKDAVNIYVNYEDRLMYGETYIPYDKLIKQVLEYCDMELVTNVFSKSYDEIISVHKRLKPFKEVVESLEKIHKKGYELALMSNSVHDIIDYNLDALGNVFNNVFLSEDIHAYKPQLKFFKYVEERLELKQKKHCHIAKGYWWDIVPCSKLGWRKIWVNRENKKGNKCHEPYEEVHTLDEVINLIEGHHHHHH
MRLEECNILFELLTEIQDEAGSMEKIVHKTLQRLSQLLAADRCSMFICRSRNGIPEVATRLLNVTPTSKFEDNLVNPDKETVFPLDIGIAGWVAHTKKFFNIPDVKKNNHFSDYLDKKTGYTTVNMMAIPITQGKEVLAVVMALNKLNASEFSKEDEEVFKKYLNFISLVLRLEHHHHHH
MKKMLLATALALLITGCAQQTFTVQNKQTAVAPKETITHHFFVSGIGQKKTVDAAKICGGAENVVKTETQQTFVNGLLGFITLGIYTPLEARVYCSK
